The record followed here is the supplement of paper PMC7877785.

± gives the uncertainty stated by the source.

This data set can be described thus: self-splicing fitness, log relative to wild type (ln ratio); higher = more splicing; Tetrahymena group I intron in knt gene, E. coli kanamycin selection, DiMSum; sequences stand for … in CUCUCU…GGAGGGAAAAGUUAUCAGGCAUGCACCUGGUAGCUAGUCUUUAAACCAAUAGAUUGCAUCGGUUUAAAAGGCAAGACCGUCAAAUUGCGGGAAAGGGGUCAACAGCCGUUCAGUACCAAGUCUCAGGGGAAACUUUGAGAUGGCCUUGCAAAGGGUAUGGUAAUAAGCUGACGGACAUGGUCCUAACCACGCAGCCAAGUCCUAAGUCAACAGAUCUUCUGUUGAUAUGGAUGCAGUUCACAGACUAAAUGUCGGUCGGGGAAGAUGUAUUCUUCUCAUAAGAUAUAGUCGGACCUCUCCUUAAUGGGAGCUAGCGGAUGAAGUGAUGCAACACUGGAGCCGCUGGGAACUAAUUUGUAUGCGAAAGUAUAUUGAUUAGUUUUGGAGUACUCGUGGUCG
In short, it runs like this: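 Fitness was computed with DiMSum as the error-weighted combination of replicate fold changes, kanamycin versus none, each normalised to wild type. The library randomised all eight intron nucleotides of the P1ex region, with the intron placed in the knt kanamycin-resistance gene on pET-22b(+) in E. coli BL21(DE3). Six replicate transformations were grown overnight at 37°C or 30°C on LB agar with or without 25 μg/mL kanamycin, plus 100 μg/mL carbenicillin, 50 μM IPTG and 0.2% rhamnose. Pooled colonies were amplicon-sequenced on an Illumina HiSeq 2500.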

For GGAGAGCAAUAUUACGUGCA, the “self-splicing fitness (ln)” value (30 °C) was -1.92 ± 0.29 and the “self-splicing fitness (ln)” value (37 °C) is -2.03 ± 0.32.
Take GCUGAGCAAUAUUACGUUCA: the “self-splicing fitness (ln)” value reads like this: (30 °C) -3.45 ± 0.28; (37 °C) -1.81 ± 0.2.
On the same counts, the results for GUUCAGCAAUAUUACGUAUG are -2.03 ± 0.1 and -0.968 ± 0.099.
Regarding ACCUAGCAAUAUUACGCAAC, the “self-splicing fitness (ln)” value (30 °C) is -1.98 ± 0.16 and the “self-splicing fitness (ln)” value (37 °C) is -0.895 ± 0.094.
On the same counts, the results for CAGGAGCAAUAUUACGUGAU are -4.53 ± 0.46 and -1.95 ± 0.23.
For UCCAAGCAAUAUUACGAGAG the same measures were -2.32 ± 0.12 and -1.85 ± 0.14.
For AGGUAGCAAUAUUACGGUGC the same measures were -3.382 ± 0.029 and -1.98 ± 0.038.
With GCCUAGCAAUAUUACGUACG, the “self-splicing fitness (ln)” value reads like this: (30 °C) -2.67 ± 0.23; (37 °C) -1.52 ± 0.24.
In the case of AUCUAGCAAUAUUACGAGCA, the “self-splicing fitness (ln)” value is -0.993 ± 0.18 (30 °C) and -0.654 ± 0.2 (37 °C).
As to GUAGAGCAAUAUUACGGUAC, the “self-splicing fitness (ln)” value is, setting by setting: (30 °C) -1.54 ± 0.12; (37 °C) 0.127 ± 0.14.
On the same counts, the results for CGUGAGCAAUAUUACGACCG are -3.79 ± 0.33 and -1.39 ± 0.27.
For CCGAAGCAAUAUUACGCAGG, for the setting “30 °C”, the “self-splicing fitness (ln)” value is -2.04 ± 0.12.
Consider CUAAAGCAAUAUUACGCGGC, for which the “self-splicing fitness (ln)” value was -1.21 ± 0.13 (30 °C) and -1.28 ± 0.17 (37 °C).
For CCCGAGCAAUAUUACGGUGU the same measures were -3.28 ± 0.1 and -1.67 ± 0.094.
For AACCAGCAAUAUUACGCCUG, the “self-splicing fitness (ln)” value was -1.8 ± 0.066 (30 °C) and -0.745 ± 0.087 (37 °C).
In the case of GACAAGCAAUAUUACGCGCC, the “self-splicing fitness (ln)” value was -2.58 ± 0.18 (30 °C) and -1.08 ± 0.21 (37 °C).
As for AAUGAGCAAUAUUACGCACG, the “self-splicing fitness (ln)” value (30 °C) was -3.21 ± 0.36.
Regarding AGCUAGCAAUAUUACGUCAG, the “self-splicing fitness (ln)” value is, setting by setting: (30 °C) -3.09 ± 0.18; (37 °C) -2.84 ± 0.22.
On the same counts, the results for GCCCAGCAAUAUUACGGGGC are -2.87 ± 0.15 and -2.73 ± 0.25.
Turning to GAAUAGCAAUAUUACGGUGU, the “self-splicing fitness (ln)” value is -3 ± 0.13 (30 °C) and -1.58 ± 0.14 (37 °C).
For GGUUAGCAAUAUUACGAACG the same measures were -0.128 ± 0.21 and -0.629 ± 0.44.
As to ACGUAGCAAUAUUACGUCAU, the “self-splicing fitness (ln)” value was -2.12 ± 0.17 (30 °C) and -2.4 ± 0.3 (37 °C).
AUGAAGCAAUAUUACGGUCU: the “self-splicing fitness (ln)” value is, setting by setting: (30 °C) -0.0448 ± 0.069; (37 °C) 0.658 ± 0.087.
Turning to CUCGAGCAAUAUUACGGCUA, the “self-splicing fitness (ln)” value (37 °C) was -2.32 ± 0.39.
Regarding GGAAAGCAAUAUUACGAGAC, the “self-splicing fitness (ln)” value (30 °C) is -3.69 ± 0.17 and the “self-splicing fitness (ln)” value (37 °C) was -1.96 ± 0.11.
For GCAGAGCAAUAUUACGUAUC the same measures were -2.59 ± 0.33 and -2.08 ± 0.41.
On the same counts, the results for AGUAAGCAAUAUUACGACAA are -1.35 ± 0.17 and -0.886 ± 0.17.
For AGAUAGCAAUAUUACGUGUG, the “self-splicing fitness (ln)” value is -2.48 ± 0.097 (30 °C) and -0.626 ± 0.098 (37 °C).
In the case of CCUUAGCAAUAUUACGCGGC, the “self-splicing fitness (ln)” value by setting is: (30 °C) -2.89 ± 0.27; (37 °C) -3.63 ± 0.42.
For UCUCAGCAAUAUUACGGAUA the same measures were -1.12 ± 0.16 and 0.0308 ± 0.15.
On the same counts, the results for AUCCAGCAAUAUUACGACCU are -1.86 ± 0.2 and 0.313 ± 0.18.
For UUGUAGCAAUAUUACGAACG the same measures were -1.69 ± 0.31 and -0.376 ± 0.26.
Regarding GAAUAGCAAUAUUACGUCAG, the “self-splicing fitness (ln)” value reads like this: (30 °C) -3.69 ± 0.31; (37 °C) -3.11 ± 0.4.
On the same counts, the results for AAAAAGCAAUAUUACGAUAG are -3.26 ± 0.17 and -1.11 ± 0.15.
As for CUGGAGCAAUAUUACGUGGA, the “self-splicing fitness (ln)” value runs as follows: (30 °C) -1.96 ± 0.23; (37 °C) -2.63 ± 0.48.
On the same counts, the results for UCAUAGCAAUAUUACGAUCU are -3.02 ± 0.19 and -1.88 ± 0.18.
For the sequence AGACAGCAAUAUUACGAGCU, the “self-splicing fitness (ln)” value runs as follows: (30 °C) -1.22 ± 0.085; (37 °C) -1.15 ± 0.11.
For GUCGAGCAAUAUUACGCGUG the same measures were -1.25 ± 0.16 and -1.24 ± 0.21.
